Assay results: patent US12246066 (AGENUS, dated 2025)
Residue numbers refer to the chain shown, from its start. Names and notes keep the numbering of the source.

B1: AGEN1884.H3 (IgG1 L235V/F243L/R292P/Y300L/P396L) (antibody)
heavy: EVQLVESGGGLVKPGGSLRLSCAASGFTFSSYSMNWVRQAPGKGLEWVSSISSSSSYIYYAESVKGRFTISRDNAKNSLYLQMNSLRAEDTAVYYCARVGLFGPFDIWGQGTLVTVSSASTKGPSVFPLAPSSKSTSGGTAALGCLVKDYFPEPVTVSWNSGALTSGVHTFPAVLQSSGLYSLSSVVTVPSSSLGTQTYICNVNHKPSNTKVDKRVEPKSCDKTHTCPPCPAPELVGGPSVFLLPPKPKDTLMISRTPEVTCVVVDVSHEDPEVKFNWYVDGVEVHNAKTKPPEEQYNSTLRVVSVLTVLHQDWLNGKEYKCKVSNKALPAPIEKTISKAKGQPREPQVYTLPPSREEMTKNQVSLTCLVKGFYPSDIAVEWESNGQPENNYKTTPLVLDSDGSFFLYSKLTVDKSRWQQGNVFSCSVMHEALHNHYTQKSLSLSPG
light: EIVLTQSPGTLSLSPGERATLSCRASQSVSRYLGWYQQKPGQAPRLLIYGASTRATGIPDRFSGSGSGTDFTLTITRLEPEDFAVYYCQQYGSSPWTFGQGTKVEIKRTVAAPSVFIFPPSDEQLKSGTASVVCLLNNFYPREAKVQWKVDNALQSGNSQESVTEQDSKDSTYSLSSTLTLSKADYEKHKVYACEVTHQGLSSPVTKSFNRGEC
B2: AGEN1884.H3 (IgG1 S239D/A330L/I332E) (antibody)
heavy: B1 heavy with V236L, S240D, L244F, P293R, L301Y, A331L, I333E, L397P
light: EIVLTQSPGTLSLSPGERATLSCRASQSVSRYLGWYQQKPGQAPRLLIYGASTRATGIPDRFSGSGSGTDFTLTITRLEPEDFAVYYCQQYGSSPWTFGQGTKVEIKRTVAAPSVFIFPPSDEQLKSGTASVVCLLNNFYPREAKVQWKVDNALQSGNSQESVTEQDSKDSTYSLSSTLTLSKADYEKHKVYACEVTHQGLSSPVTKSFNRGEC
notes: Section 7.2.2 prints 'A330E'; also called AGEN1884.H3 (IgG1-S239D/A330E/I332E) as printed in section 7.2.2
B3: AGEN1884.H1.1 (IgG1) (antibody, V domains shown)
VH: EVQLVESGGGLVKPGGSLRLSCAASGFTFSSYSMNWVRQAPGKGLEWVSSISSSSSYIYYADSVKGRFTISRDNAKNSLYLQMNSLRAEDTAVYYCARVGLFGPFDIWGQGTMVTVSS
VL: EIVLTQSPGTLSLSPGERATLSCRASQSVSRYLGWYQQKPGQAPRLLIYGASTRATGIPDRFSGSGSGTDFTLTITRLEPEDFAVYYCQQYGSSPWTFGQGTKVEIK
B4: AGEN1884.H1.3 (IgG1) (antibody, V domains shown)
VH: B3 VH with D62E, F102M
VL: B3 VL
B5: AGEN1884.H2.3 (IgG1) (antibody, V domains shown)
VH: B3 VH with D62E, F102M, M113L
VL: B3 VL
B6: AGEN1884.H1.2 (IgG1) (antibody, V domains shown)
VH: B3 VH with F102M, M113L
VL: B3 VL
B7: AGEN1884.H2.2 (IgG1) (antibody, V domains shown)
VH: B3 VH with D62E
VL: B3 VL
B8: AGEN1884.H2.1 (IgG1) (antibody, V domains shown)
VH: B3 VH with M113L
VL: B3 VL

Molecular target: T1, human CTLA-4 on Jurkat cells engineered to constitutively express human CTLA-4 (Promega) (human, UniProt P16410 36-223)
T1 construct: Bought cell line; also called CTLA-4-expressing cells; cells expressing human CTLA-4
Assay: flow cytometry, 5 µg/ml antibody on Jurkat cells expressing human CTLA-4
Protocol: The binding of anti-CTLA-4 antibodies AGEN1884.H3 (IgG_1 S239D/I332E), AGEN1884.H3 (IgG_1 S239D/A330L/I332E), and AGEN1884.H3 (IgG_1L235V/F243L/R292P/Y300L/P396L) to CTLA-4-expressing cells was characterized similarly as described above. Briefly, Jurkat cells engineered to express human CTLA-4 (Promega) were stained first with 5 μg/ml of an anti-CTLA-4 antibody or an isotype control antibody and then with an anti-human IgG secondary antibody (Thermo Scientific, Cat #31529). The cells were analyzed using BD FACS Canto II.

binding result	Binder
binds	B1
binds	B2

Molecular target: T1, human CTLA-4 on Jurkat cells engineered …
Assay: flow cytometry, 2 µg/ml antibody on Jurkat cells expressing human CTLA-4
Protocol: Jurkat cells engineered to constitutively express human CTLA-4 (Promega) were used to analyze the binding of anti-CTLA-4 antibodies. Briefly, the cells were stained at 5 ×10^5 cells/well using 2 µg/ml of antibody in a 96-well plate for 30 minutes at 4° C. The cells were washed twice and incubated for 20 minutes at 4° C. with an anti-human IgG secondary antibody (Thermo Scientific, Cat #31529). The cells were washed and suspended in […] of 2% paraformaldehyde (Alfa Aesar, Cat #43368) prepared in PBS. Data were collected with BD FACS Canto II.

binding result	Binder
binds	B3
binds	B4
binds	B5
binds	B6
binds	B7
binds	B8
